According to patent CN106565845A:

Legend:
[1] = molecular target: 重组人uPAR蛋白 (recombinant human uPAR protein, uPAR-ECD) (human) (UniProt Q03405); test: ELISA, plate coated with uPAR-ECD (2 ng/μl), antibody at 0.0625 μg/ml, goat anti-human IgG-HRP
[2] = molecular target: human uPAR on SW480 cells (人结肠癌细胞) (human) (UniProt Q03405); test: flow cytometry on SW480 cells, antibody at 5 μg/ml, FITC goat anti-human IgG
[3] = molecular target: 重组人uPAR蛋白 (recombinant human uPAR protein, uPAR-ECD) (human) (UniProt Q03405); test: ELISA, plate coated with uPAR-ECD (2 ng/μl), antibody at 0.125 μg/ml, goat anti-human IgG-HRP

B1: H5L5抗体 (humanized anti-uPAR antibody H5L5) (antibody, human IgG1, kappa, V domains shown)
VH: EVQLVQSGAEVKKPGATVKISCKASGYTFSDFYIHWVRQAPGKGLEWMGWIFHGSDNTEYNEKFRGRVTITADTSTDTGYLELSSLRSEDTAVYYCARWGPHWYFDVWGQGTLVSVSS
VL: MIQMTQSPSSVSASVGDRVTITCRASQDVSYMAWYQQKPGKAPKPWIFEISTLQSGVPSRFSGSGSGTDYSLTINSLQPEDFATYYCQQWNYPFTFGGGTKVEIKR
**Q.** With B1 as the binder, how does the OD450 [1] read?
**A.** 1.42 OD450

**Q.** And the 平均荧光强度 (MFI) [2]?
**A.** 3.17

**Q.** And the 阳性率 (percent positive cells) [2]?
**A.** 99.2%

**Q.** What about the OD450 [3] of the same binder?
**A.** 1.86 OD450
